For one substance, time results are on record in US8632988.

The target of test [1] is human hemoglobin (human) (UniProt P69905). Briefly: cell-based or functional assay.
The target of test [2] is mouse hemoglobin (mouse) (UniProt P01942). Briefly: cell-based or functional assay.
Sequence of UniProt P01942 (P01942 2-142, chain 1 of 2): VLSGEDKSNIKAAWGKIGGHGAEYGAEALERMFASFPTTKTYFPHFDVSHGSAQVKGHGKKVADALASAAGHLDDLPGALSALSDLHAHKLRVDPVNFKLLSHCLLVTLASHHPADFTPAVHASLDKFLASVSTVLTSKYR
Sequence of UniProt P01942 (P02088 2-147, chain 2 of 2, further chain): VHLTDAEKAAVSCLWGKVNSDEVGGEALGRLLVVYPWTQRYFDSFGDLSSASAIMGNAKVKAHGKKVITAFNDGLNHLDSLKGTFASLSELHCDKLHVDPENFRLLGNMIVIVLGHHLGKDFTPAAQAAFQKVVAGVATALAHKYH

Sequence of UniProt P69905 (P69905 2-142, chain 1 of 2): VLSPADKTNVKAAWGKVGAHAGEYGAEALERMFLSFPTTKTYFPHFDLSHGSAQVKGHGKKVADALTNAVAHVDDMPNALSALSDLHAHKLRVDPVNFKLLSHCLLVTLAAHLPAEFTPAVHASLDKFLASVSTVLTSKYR
Sequence of UniProt P69905 (P68871 2-147, chain 2 of 2, further chain): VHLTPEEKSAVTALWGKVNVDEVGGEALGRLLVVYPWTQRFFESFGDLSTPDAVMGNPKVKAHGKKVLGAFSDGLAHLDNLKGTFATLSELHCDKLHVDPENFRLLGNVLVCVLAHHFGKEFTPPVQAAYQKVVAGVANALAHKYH

“IsdB on the cell wall of iron-starved S. aureus strain Newman (from UniProt A6QG30 41-613) (receptor)”: the results for the time at which growth appears around hemoglobin disks on iron-deficient solid medium in test [1] and in test [2] were 24 h and 72 h, respectively.
